Biological target: CD20 (human) (UniProt P11836)
Experiment: cell-based or functional assay

Chain of CD20 (human) (P11836 whole entry): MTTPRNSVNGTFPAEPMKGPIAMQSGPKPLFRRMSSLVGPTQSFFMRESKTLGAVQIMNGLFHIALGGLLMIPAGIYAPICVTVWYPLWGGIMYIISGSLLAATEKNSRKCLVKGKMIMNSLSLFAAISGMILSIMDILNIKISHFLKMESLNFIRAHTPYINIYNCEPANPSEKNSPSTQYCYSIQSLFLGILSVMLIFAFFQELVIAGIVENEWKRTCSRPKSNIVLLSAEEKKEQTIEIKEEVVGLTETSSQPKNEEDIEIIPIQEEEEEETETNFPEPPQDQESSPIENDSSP

## 20-Rap (antibody)
  in vitro cytotoxicity EC50, Daudi and Ramos cells: 0.0001 µM
  in vitro cytotoxicity EC50, Jeko-1 cells: 20 µM
